Here are results for 2 molecules from patent US20100247515A1.

The target in test [1] is DOM1h-131-202. Put plainly: monomer/dimer self-association, AUC sedimentation equilibrium.
Test [2] deals with DOM1h-131-202. Put plainly: monomer/dimer self-association, AUC sedimentation velocity.
The target in a further test is DOM1h-131-206. Put plainly: monomer/dimer self-association, AUC sedimentation equilibrium.

B1: DOM1h-131-202 (protein)
VH: EVQLLESGGGLVQPGGSLRLSCAASGFTFAHETMVWVRQAPGKGLEWVSHIPPDGQDPFYADSVKGRFTISRDNSKNTLYLQMNSLRAEDTAVYYCALLPKRGPWFDYWGQGTLVTVSS
Regarding B1, the Kd with DOM1h-131-202 [1] was 1300 nM; with DOM1h-131-202 [2], 1000 nM.

B2: DOM1h-131-206 (protein)
VH: EVQLLESGGGLVQPGGSLRLSCAASGFTFAHETMVWVRQAPGKGLEWVSHIPPDGQDPFYADSVKGRFTISRDNSKNTLYLQMNSLRAEDTAVYHCALLPKRGPWFDYWGQGTLVTVSS
Molecule B2 had a Kd with DOM1h-131-206 of 360000 nM.
